Assay results from patent US20180021429A1, “ANTICANCER AGENTS OR ANTIMETASTATIC AGENTS USING FSTL1 AND COMBINATION DRUG THEREOF” (PHARMA FOODS INTERNATIONAL CO., LTD., priority 2015, published 2018).

What was measured:
[1] = test system: C57/BL/6 mouse-derived bone marrow cells; experiment: MSC induction inhibition test using mouse bone marrow cells stimulated with FSTL1 (Example 27); type: cell-based; conditions: FSTL1 20 ng/mL, antibody 10 μg/mL, 8 days; flow cytometry; FIG. 115A
Procedure: In this Example, the inhibitory activity of the anti-FSTL1 antibody was confirmed in an experimental system of mesenchymal stem cell induction while a FSTL1 inhibitory effect on MSC expansion induced not only by FSTL1 but by Snail+ tumor cells was also evaluated. For specific operation, each antibody (10 μg/mL) was added to systems in which C57/BL/6 mouse-derived bone marrow cells were stimulated with FSTL1 (20 ng/mL) or a culture supernatant of tumor cells. After culture for 8 days under stimulation, cell fraction CD45(−) cells (MSCs) containing MSCs at a high rate and CD45(−)CD146(+)ALCAM(+) cells (sMSCs) increasing in number in association with cancer metastasis were analyzed by flow cytometry in the same way as in Example 14, and the number of cells per culture system was counted. In this Example, mouse immunoglobulin manufactured by BioLegend, Inc. (#401408, Cone MG1-45) was used as a control antibody.

[2] = test system: GFP-positive and Snail-positive B16-F10 tumor cells; experiment: In vivo, intraperitoneal administration, Snail-positive B16-F10 bone metastasis model (Example 18); set-up: species or system mouse; conditions: intraperitoneal 10 mg/kg on days 5 and 10; day 14
Description: (§1) 1. Experiment Group (n=5) • 1. No treatment (0.9% NaCl as a sham) • 2. Control IgG (anti-DNP) • 3. Anti-FSTL1 Clone #6-55 • 4. Anti-FSTL1 Clone #7-34 • 5. Anti-FSTL1 Clone #8-1 […]
(§2) • Effects on the growth of subcutaneous tumor (calculation of tumor volume by tumor size measurement): measured 7, 11, and 14 days after tumor implantation (FIG. 42B) • Effects on bone metastasis (GFP-positive tumor cells in bone marrow or the spleen) (FIGS. 42A and 42C) • Effects on MSC expansion (CD45-negative cells in bone marrow or the spleen) (FIGS. 42A and 42C) • Effects on weight loss (FIG. 42A) • Effects on the expansion of immunosuppressive Treg cells (CD4-positive and Foxp3-positive cells in the spleen) (FIG. 42C) • Other immunosuppressive properties (FIG. 42C)
(§3) In Example 17, the antibody was administered into tumor according to the purpose of “inhibiting metastasis from a primary focus to bone” as previously conducted by the present inventors. […] Specifically, antitumor effects and immunosuppression-mitigating effects were comparatively analyzed by the intraperitoneal administration (systemic administration) of the anti-FSTL1 antibody using bone metastasis models in which mouse melanoma cells (B16-F10) forced to express Snail were subcutaneously and intravenously transplanted in C57BL/6N mice. […]

[3] = test system: GFP-positive and Snail-positive B16-F10 tumor cells; experiment: Snail-positive B16-F10 bone metastasis model, intraperitoneal administration (Example 18); type: in vivo, mouse; conditions: intraperitoneal 10 mg/kg on days 5 and 10; FIG. 106A
Description: as §1
as §2, with “106B)” for “42B)”, “106A” for “42A”, “106C)” for “42C)”, “(CD45− negative” for “(CD45-negative”, “106A)” for “42A)”
as §3

[4] = biological target: T1, human FSTL1 (Homo sapiens, UniProt Q12841); experiment: ELISA binding activity of purified antibody against human FSTL1 (Example 2); conditions: FIG. 1B/31B
T1 construct: AAA linker + 10xHis (C); made in house; host or cells: Expi293 (transient expression; purified from culture supernatant on HisPur Cobalt Resin)
T1 sequence (Q12841 with tags, fused parts or gaps): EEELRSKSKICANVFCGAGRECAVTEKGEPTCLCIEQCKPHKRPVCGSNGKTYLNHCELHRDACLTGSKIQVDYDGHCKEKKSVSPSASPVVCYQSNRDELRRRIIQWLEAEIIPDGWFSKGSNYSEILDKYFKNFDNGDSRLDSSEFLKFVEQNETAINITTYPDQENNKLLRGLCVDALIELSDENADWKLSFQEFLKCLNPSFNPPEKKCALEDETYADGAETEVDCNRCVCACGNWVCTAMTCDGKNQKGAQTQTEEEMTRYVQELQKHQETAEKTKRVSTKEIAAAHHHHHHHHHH
Procedure: (§4) The reactivity of the obtained antibody clones described above with FSTL1 was evaluated by ELISA under the following conditions.
(Table 2 ELISA conditions for binding activity evaluation of purified antibody) Antibodies used: anti-dinitrophenyl (DNP) antibody (negative control), #5-2, #5-3, #5-8, #5-10, #5-43, #6-55, and #7-34
FIGS. 2 and 3 show results of evaluating binding activity under the condition of Table 3 as to clones differing in screening and antibody purification timings.
(§5) Antibodies used: anti-dinitrophenyl (DNP) antibody (negative control), #5-2, #5-3, #5-8, #5-10, #5-43, #6-55, and #7-34
FIGS. 32 and 33 show results of evaluating binding activity under the condition of Table 3 as to clones differing in screening and antibody purification timings.

[5] = biological target: T1, human FSTL1; experiment: ELISA, binding activity of purified antibody against human FSTL1 (Example 2); conditions: cross reactivity test; antibody diluted from 1000 ng/ml
Procedure: as §4, §5
FIGS. 64 and 65 show results of evaluating binding activity under the condition of Table 3 as to clones differing in screening and antibody purification timings.

B1: #13: chicken-mouse chimeric anti-FSTL1 antibody clone; variable regions SEQ ID NO: 815 (light), 817 (heavy) (antibody, V domains shown)
VH: AVTLDESGGGLQTPGGGLSLVCKASGFTFSSVTMQWVRQAPGKGLEWVASICSGSSTYYGPAVKGRATISRDNGQNTVRLQLNNLRAEDTATYYCAKIVGRGRWSCTSAAYNIDAWGHGTEVIVSS
VL: ASTQPSSVSANPGETVKITCSGGGNNYGWYQQKSPGSAPVTVIYNNNNRPSNIPSRFSGSKSGSTNTLTITGVQAEDEAVYYCGSYDSSSDSGIFGAGTTLTVL
modifications: mouse constant regions
- MSC induction inhibitory effect [1]: strong inhibitory effect equivalent to or higher than that of #6-55

B2: #8-1: chicken-mouse chimeric anti-FSTL1 antibody clone; variable regions SEQ ID NO: 791 (light), 793 (heavy) (antibody, V domains shown)
VH: AVTLDESGGGLQTPGGALSLVCKGSGFTFSSFNMFWVRQAPGKGLEWVAGIGKDGVPKYGAAVDGRATISKDNGQSTMRLQLNNLRAEDTGTYFCAKAAGGCSYDWCGIYAGDIDTWGHGTEVIVSS
VL: ASTQPSSVSANPGEAVKITCSGGSGSYYGWYQQKSPGSAPVTVIYNNNQRPSDIPSRFSGSKSGSTATLTITGVQAEDEAVYFCGGYDSSSGHGGIFGAGTTLTVL
modifications: mouse constant regions
- effect on weight loss (mouse body weight) [2]: anti-weight loss effect
- anti-weight loss effect [3]: confirmed

B3: #6-55: chicken-mouse chimeric anti-FSTL1 antibody clone; variable regions SEQ ID NO: 783 (light), 785 (heavy) (antibody, V domains shown)
VH: AVTLDESGGGLQTPGGALSLVCKGSGFTFTSVTMQWVRQAPGKGLEWVASVCSGSSTYYAPAVKGRATISRDNGQSTVRLQLSNLRPEDTGTYYCAKIAGRARWSCTSAAYNIDAWGHGTEVIVSS
VL: ASTQPSSVSAIPGETVKITCSGGGNNYGWYQQRSPGSAPVTVIYYNDNRPSNIPSRFSGSTSGSTSTLTITGVQADDEAIYYCGSWDSNTDSGIFGAGTTLTVL
modifications: mouse constant regions
- binding activity against human FSTL1 [4]: specific and equivalently strong binding activity
- effect on weight loss (mouse body weight) [2]: anti-weight loss effect
- binding activity against human FSTL1 [5]: specific and equivalently strong binding activity
- anti-weight loss effect [3]: confirmed

B4: #7-34: chicken-mouse chimeric anti-FSTL1 antibody clone; variable regions SEQ ID NO: 787 (light), 789 (heavy) (antibody, V domains shown)
VH: AVTLDESGGGLQTPGGGLSLVCKASGFTFSSVTMQWVRQAPGKGLEWVASICSGSSTYYGPAVKGRATISRDNGQNTVRLQLNNLRAEDTATYYCAKIVGRGRWSCTSAAYNIDAWGHGTEVIVSS
VL: ASTQPSSVSANPGETVKITCSGGGNNYGWYQQKSPGSAPVTVIYYNNNRPSNIPSRFSGSTSGSTSTLTITGVQAEDEAVYYCGSYEGSTDSGIFGAGTTLTVL
modifications: mouse constant regions
- binding activity against human FSTL1 [4]: specific and equivalently strong binding activity
- binding activity against human FSTL1 [5]: specific and equivalently strong binding activity

B5: #33: chicken-mouse chimeric anti-FSTL1 antibody clone; variable regions SEQ ID NO: 823 (light), 825 (heavy) (antibody, V domains shown)
VH: AVTLDESGGGLQTPGGGLSLVCKASGFTFSSFNMNWVRQAPGKGLEYVAEISGTGSSTYYGSAVKGRATISRDNGQSTVRLQLNNLRAEDTATYFCARGDGAYSIDAWGHGTEVIVSS
VL: ASTQPSSVSANPGETVEITCSGDSSYYGWFQQKSPGSAPVTVIYDNTNRPSDIPSRFSGSKSGSTATLTITGVRAEDEAVYYCGGYDSSTYDGIFGAGTTLTVL
modifications: mouse constant regions
- MSC induction inhibitory effect [1]: strong inhibitory effect equivalent to or higher than that of #6-55
